{"source": "patent US20250101453A1", "about": "“METHODS OF PARTHENOGENIC HAPLOID INDUCTION AND HAPLOID CHROMOSOME DOUBLING” (PIONEER HI-BRED INTERNATIONAL, INC., priority 2022, published 2025)", "molecules": {"B1": {"name": "ZM-ODP2-(266-669): truncated maize Ovule Development Protein 2 polypeptide (SEQ ID NO: 2) encoded by ZM-ODP2 (TR5); expressed from plasmid RV027603 under egg cell promoter (protein)", "chain": "MDTFGQRTSIYRGVTRHRWTGRYEAHLWDNSCRREGQTRKGRQVYLGGYDKEEKAARAYDLAALKYWGATTTTNFPVSNYEKELEDMKHMTRQEFVASLRRKSSGFSRGASIYRGVTRHHQHGRWQARIGRVAGNKDLYLGTFSTQEEAAEAYDIAAIKFRGLNAVTNFDMSRYDVKSILDSSALPIGSAAKRLKEAEAAASAQHHHAGVVSYDVGRIASQLGDGGALAAAYGAHYHGAAWPTIAFQPGAASTGLYHPYAQQPMRGGGWCKQEQDHAVIAAAHSLQDLHHLNLGAAGAHDFFSAGQQAAAAAMHGLGSIDSASLEHSTGSNSVVYNGGVGDSNGASAVGGSGGGYMMPMSAAGATTTSAMVSHEQVHARAYDEAKQAAQMGYESYLVNAENNGGG", "modifications": "Zea mays", "notes": "expressed from plasmid RV027603 under egg cell promoter"}, "B2": {"name": "ZM-ODP2-(266-668):At-CBF1a: fusion protein (SEQ ID NO: 15) of truncated ZM-ODP2 and C-repeat/DRE binding factor domain At-CBF1a; expressed from plasmid RV048759 under PvEC1 promoter (protein)", "chain": "MDTFGQRTSIYRGVTRHRWTGRYEAHLWDNSCRREGQTRKGRQVYLGGYDKEEKAARAYDLAALKYWGATTTTNFPVSNYEKELEDMKHMTRQEFVASLRRKSSGFSRGASIYRGVTRHHQHGRWQARIGRVAGNKDLYLGTFSTQEEAAEAYDIAAIKFRGLNAVTNFDMSRYDVKSILDSSALPIGSAAKRLKEAEAAASAQHHHAGVVSYDVGRIASQLGDGGALAAAYGAHYHGAAWPTIAFQPGAASTGLYHPYAQQPMRGGGWCKQEQDHAVIAAAHSLQDLHHLNLGAAGAHDFFSAGQQAAAAAMHGLGSIDSASLEHSTGSNSVVYNGGVGDSNGASAVGGSGGGYMMPMSAAGATTTSAMVSHEQVHARAYDEAKQAAQMGYESYLVNAENNGGGGGGGSGGGGSGGGGSTCAKDIQKAAAEAALAFQDETCDTTTTNHGLDMEETMVEAIYTPEQSEGAFYMDEETMFGMPTLLDNMAEGMLLPPPSVQWNHNYDGEGDGDVSLWSY"}}, "key": {"[1]": {"details": "chemical chromosome doubling, Frei et al. 2018; cited from earlier work"}, "[2]": {"system": "unfertilized egg cell", "test": "In vivo genetic chromosome doubling: fertility (mature seed set) of self-pollinated regenerated T1 (D0) plants, Example 3", "design": "species or system Zea mays", "excerpt": "Using the methods described in Example 2, T0 transgenic plants hemizygous for RV027603 (SEQ ID NO: 7) were obtained from a population of transformed immature diploid embryos. […] Using methods known in the art, single copy T0 plants were identified and grown to maturity. Upon the transition to flowering, the T0 plants were used as female parent plants to provide a donor ear.\n(§1) The ears of the transgenic female parent plants were shoot-bagged before silk emergence to avoid any foreign pollen contamination. The silks of the donor ears were pollinated with viable pollen grains collected from the anthers of a haploid inducer parent plant, constituting a “haploid induction cross”.\n(§2) Immature ears were harvested approximately 18 days after pollination, surface sterilized in 30% Clorox bleach plus 0.5% Micro detergent for 20 minutes and washed twice with sterile water. Immature embryos obtained from each donor ear comprising a biological replicate for a unique transformation event were plated on a petri dish containing 605B resting medium and incubated at 28° C. under dark conditions for 12-24 hours.\nA total of 8 unique events for RV027603 were analyzed. Per event, two groups of haploid embryos were obtained given the hemizygous T-DNA from RV027603 inherited from the maternal plant. A first group of haploid embryos lacking inheritance of T-DNA from RV027603 was used to regenerate “null T1 plants”. A second group of haploid embryos that inherited a T-DNA from RV027603 was used to regenerate “hemizygous T1 plants”. No artificial chromosome doubling treatment, for example a chemical chromosome doubling treatment or agent, was provided to any of the haploid embryos during the experiment.\nTo assess the efficacy of in vivo genetic chromosome doubling in response to ZM-ODP2-(266-669) activity, the proportion of regenerated T1 plants capable of producing intact, mature seed was evaluated. The ear of each D0 (T1) plant for both the “null” or “hemizygous” T1 groups were shoot-bagged before silk emergence to avoid any foreign pollen contamination. The silks of the ears for each D0 (T1) plant were self-pollinated with pollen grains collected from the anthers of each D0 (T1) plant. After self-fertilization, the plants were grown to physiological maturity, the ears harvested, and D1 (T2) seed was counted per donor ear from each null and hemizygous plant per group per event. Seed counts for fertile plants were sorted into three categories: a low-range consisting of 1-24 kernels/ear, a medium-range consisting of 25-39 kernels/ear, and a high-range consisting of 40 or more kernels/ear."}, "[3]": {"system": "Background 1 (PHR03 x PH184C)", "test": "Haploid induction cross, haploid embryos scored by absence of paternal YFP, Background 1", "type": "in vivo, Zea mays", "procedure": "as §1, §2\nUsing the methods described in Examples 2 and 3, T0 transgenic plants hemizygous for RV048759 (SEQ ID NO: 16) or RV027603 (SEQ ID NO: 7) were obtained from a population of transformed immature diploid embryos from two different genetic backgrounds. The first genetic background (hereinafter “Background 1”) was “PHR03 x PH184C” and the second genetic background (hereinafter “Background 2”) was X08D492.\nThe T0 transgenic plants hemizygous for RV048759 were used as female parent plants and the donor ears fertilized with pollen provided by a pollen donor. The silks of the donor ears were pollinated with viable pollen grains collected from the anthers of a haploid inducer parent plant, constituting a “haploid induction cross”.\n(§3) A total of 13 unique events for RV048759 and a total of 7 unique events for RV027603 were analyzed in Background 1. A total of 13 unique events for RV048759 and a total of 11 unique events for RV027603 were analyzed in Background 2."}, "[4]": {"system": "Background 2 (X08D492)", "test": "Haploid induction cross, haploid embryos scored by absence of paternal YFP, Background 2", "type": "in vivo, Zea mays", "procedure": "as §1, §2\nUsing the methods described in Examples 2 and 3, T0 transgenic plants hemizygous for RV048759 (SEQ ID NO: 16) or RV027603 (SEQ ID NO: 7) were obtained from a population of transformed immature diploid embryos from two different genetic backgrounds. The first genetic background (hereinafter “Background 1”) was “PHR03 x PH184C” and the second genetic background (hereinafter “Background 2”) was X08D492. […]\nas §3"}}, "note": "Where “and” joins values, the source holds several entries; their conditions need not be identical. Equal entries are not always repeated."}
{"molecule": "COc1cc2c(c(OC)c1OC)-c1ccc(OC)c(=O)cc1[C@@H](NC(C)=O)CC2", "note": "[colchicine, (S)-N-(5,6,7,9-tetrahydro-1,2,3,10-tetramethoxy-9-oxobenzo (a)heptalen-7-yl) acetamide]", "values": [{"measurement": "fertility rates for self-pollinated D0 plants", "setting": "[1]", "value": "15-20%"}]}
{"molecule": "B1", "values": [{"measurement": "self-pollinated hemizygous D0/T1 plants that produced 40 or more D1/T2 kernels", "setting": "[2]; % of the hemizygous T1 group", "value": 83, "unit": "%"}, {"measurement": "average level of fertile hemizygous T1 plants", "setting": "[2]; hemizygous T1 plants, across 8 events of RV027603, self-pollinated, no artificial chromosome doubling treatment", "value": 14.9, "unit": "%"}, {"measurement": "level of fertile null T1 plants (produced mature, intact seed)", "setting": "[2]; null T1 plants lacking T-DNA of RV027603, same 8 events, self-pollinated", "value": "3.2% and 3.17%"}, {"measurement": "self-pollinated hemizygous D0/T1 plants that produced 40 or more D1/T2 kernels (count)", "setting": "[2]; of 38 self-pollinated D0/T1 plants", "value": 31}, {"measurement": "average haploid induction rate", "setting": "[3]", "value": 3.5, "unit": "%"}, {"measurement": "Haploid Induction Rate (%)", "setting": "[3]; per event", "value": "2.5% and 2.4% and 1.9% and 4.8% and 0.6% and 5.0% and 7.0%"}, {"measurement": "average haploid induction rate", "setting": "[4]", "value": 15.1, "unit": "%"}]}
{"molecule": "B2", "values": [{"measurement": "average haploid induction rate", "setting": "[3]", "value": 31.3, "unit": "%"}, {"measurement": "average haploid induction rate", "setting": "[4]", "value": 33.9, "unit": "%"}]}
